Residue numbers refer to the chain shown, from its start.
B1: 4F2 scFv (scFv, V domains shown)
VH: EVQLLESGGGLVQPGGSLRLSCAASGFTFSDYYMHWVRQAPGKGLEWVSEIIPIFDTANYAQKFQDRFTISRDNSKNTLYLQMNSLRAEDTAVYYCARSTGDYFDYWGQGTLVTVSS
VL: QSVLTQPPSASGTPGQRVTISCSGDKLGNKYTSWYQQLPGTAPKLLIYDNNKRPSGVPDRFSGSKSGTSASLAISGLRSEDEADYYCGTWDSSLSAYVFGGGTKLTVL
notes: One-chain scFv with an HA tag from a synthetic human scFv library, made in E. coli
B2: 4A3 scFv (scFv, V domains shown)
VH: EVQLLESGGGLVQPGGSLRLSCAASGFTFSNYYMHWVRQAPGKGLEWVSSISFTGSTSYNPSLKSRFTISRDNSKNTLYLQMNSLRAEDTAVYYCARLGIPFFTYLDYWGQGTLVTVSS
VL: QSVLTQPPSASGTPGQRVTISCGGNNIGSKSVHWYQQLPGTAPKLLIYEDTERPSGVSDRFSGSKSGTSASLAISGLRSEDEADYYCQAWDSSTVVFGGGTKLTVL
notes: as for B1
B3: 4H2 scFv (scFv, V domains shown)
VH: EVQLLESGGGLVQPGGSLRLSCAASGFTFSTAWMSWVRQAPGKGLEWVSRVNPSDSHTDYSPSFQDRFTISRDNSKNTLYLQMNSLRAEDTAVYYCARVPPGYGFDIWGQGTLVTVSS
VL: EIVLTQSPGTLSLSPGERATLSCQASQDITNYLNWYQQKPGQAPRLLIYDASNRATGIPDRFSGSGSGTDFTLTISRLEPEDFAVYYCQQSYSTPFTFGQGTKVEIK
notes: as for B1
B4: 4D2 scFv (scFv, V domains shown)
VH: EVQLLESGGGLVQPGGSLRLSCAASGFTFSSYWIAWVRQAPGKGLEWVSTISGSGGYTYYAESVKGRFTISRDNSKNTLYLQMNSLRAEDTAVYYCARDSSGWLNYWGQGTLVTVSS
VL: EIVLTQSPGTLSLSPGERATLSCRASQSITSHLAWYQQKPGQAPRLLIYDASNRATGIPDRFSGSGSGTDFTLTISRLEPEDFAVYYCQQYNNWPPITFGQGTKVEIK
notes: as for B1
B5: 4A2 scFv (scFv, V domains shown)
VH: EVQLLESGGGLVQPGGSLRLSCAASGFTFSNYAMSWVRQAPGKGLEWVSEISHSGTTNYNPSLKSRFTISRDNSKNTLYLQMNSLRAEDTAVYYCTRAIWGFDYWGQGTLVTVSS
VL: QSVLTQPPSASGTPGQRVTISCSRENIGSRSVHWYQQLPGTAPKLLIYDNNERASGVPNRFSGSKSGTSASLAISGLRSEDEADYYCQAWDSSTAVFGGGTKLTVL
notes: as for B1
B6: 4G3 scFv (scFv, V domains shown)
VH: EVQLLESGGGLVQPGGSLRLSCVASGFTFSEKSIHWVRQAPGKGLEWVSGTSANTGNTYYADSVKGRFTISRDNSKNTLYLQMNSLRAEDTAVYYCAHHNWAGYFDYWGQGTLVTVSS
VL: B3 VL with T10I, Q27H, D28A, T30S, L33I, Y92N, T94F, F96Y
notes: as for B1
B7: 4F2 full IgG1 antibody (antibody, V domains shown)
VH: B1 VH
VL: QSVLTQPPSASGTPGQRVTISCSGDKLGNKYTSWYQQLPGTAPKLLIYDNNKRPSGVPDRFSGSKSGTSASLAISGLRSEDEADYYCGTWDSSLSAYVFGGGTKLTVLR
notes: scFv clone converted to full IgG1, made in CHO-S cells; also called anti-VISTA antibody
B8: 4A3 full IgG1 antibody (antibody, V domains shown)
VH: B2 VH
VL: QSVLTQPPSASGTPGQRVTISCGGNNIGSKSVHWYQQLPGTAPKLLIYEDTERPSGVSDRFSGSKSGTSASLAISGLRSEDEADYYCQAWDSSTVVFGGGTKLTVLR
notes: as for B7
B9: 4D2 full IgG1 antibody (antibody, V domains shown)
VH: B4 VH
VL: EIVLTQSPGTLSLSPGERATLSCRASQSITSHLAWYQQKPGQAPRLLIYDASNRATGIPDRFSGSGSGTDFTLTISRLEPEDFAVYYCQQYNNWPPITFGQGTKVEIKR
notes: as for B7
B10: 4A2 full IgG1 antibody (antibody, V domains shown)
VH: B5 VH
VL: QSVLTQPPSASGTPGQRVTISCSRENIGSRSVHWYQQLPGTAPKLLIYDNNERASGVPNRFSGSKSGTSASLAISGLRSEDEADYYCQAWDSSTAVFGGGTKLTVLR
notes: scFv clone converted to full IgG1, made in CHO-S cells; also called 4A2 antibody; anti-VISTA antibody
B11: 4G3 full IgG1 antibody (antibody, V domains shown)
VH: B6 VH
VL: EIVLTQSPGILSLSPGERATLSCQASHAISNYINWYQQKPGQAPRLLIYDASNRATGIPDRFSGSGSGTDFTLTISRLEPEDFAVYYCQQSNSFPYTFGQGTKVEIKR
notes: as for B7
B12: 4H2 full IgG1 antibody (antibody, V domains shown)
VH: B3 VH
VL: B11 VL with I10T, H27Q, A28D, S30T, I33L, N92Y, F94T, Y96F
notes: as for B7

Target: T1, human VISTA protein overexpressed in the NIH/3T3 cell line (human, UniProt Q9H7M9 33-311)
T1 construct: whole, on cells; Gene cloned into pCMV3-C-FLAG (Sino Biological), so a C-terminal FLAG tag is likely; On whole cells in ELISA and flow cytometry; as sonicated lysate in immunoprecipitation; as reduced, boiled RIPA lysate in the western blot; also called VISTA/NIH/3T3 cell line; VISTA-expressing cell line
T1 sequence (looked up): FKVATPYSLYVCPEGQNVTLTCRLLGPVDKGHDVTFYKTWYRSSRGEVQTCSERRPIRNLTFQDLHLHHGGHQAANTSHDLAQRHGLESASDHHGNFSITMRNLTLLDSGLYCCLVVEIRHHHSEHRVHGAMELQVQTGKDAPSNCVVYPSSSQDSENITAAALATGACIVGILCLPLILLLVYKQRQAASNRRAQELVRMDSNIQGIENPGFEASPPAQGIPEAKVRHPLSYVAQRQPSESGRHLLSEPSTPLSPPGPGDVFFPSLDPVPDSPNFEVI
Experiment: cell ELISA of scFv on VISTA-expressing NIH/3T3 cells, anti-HA HRP

| Binder | binding result |
| --- | --- |
| B1 | binds |
| B2 | binds |
| B3 | binds |
| B4 | binds |
| B5 | binds |
| B6 | binds |

Target: T2, mouse VISTA protein (mVISTA-Fc, R&D Systems, Cat. No. 7005-B7) (mouse, UniProt Q9D659 33-191)
T2 construct: Bought recombinant protein; not shown: Fc part of the bought fusion protein
T2 sequence (looked up): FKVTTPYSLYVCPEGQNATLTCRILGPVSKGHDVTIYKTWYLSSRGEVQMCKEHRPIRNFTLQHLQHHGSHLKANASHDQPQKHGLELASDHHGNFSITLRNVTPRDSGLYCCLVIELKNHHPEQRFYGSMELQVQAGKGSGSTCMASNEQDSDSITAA
Experiment: ELISA on coated mVISTA-Fc

| Binder | binding result |
| --- | --- |
| B7 | no binding (tested: 100 ng per well) |
| B8 | no binding (tested: 100 ng per well) |
| B9 | no binding (tested: 100 ng per well) |
| B10 | no binding (tested: 100 ng per well) |
| B11 | no binding (tested: 100 ng per well) |
| B12 | no binding (tested: 100 ng per well) |

Target: T3, human VISTA protein (hVISTA-Fc, R&D Systems, Cat. No. 7126-B7) (human, UniProt Q9H7M9 33-194)
T3 construct: Bought recombinant protein; not shown: Fc part of the bought fusion protein
T3 sequence (looked up): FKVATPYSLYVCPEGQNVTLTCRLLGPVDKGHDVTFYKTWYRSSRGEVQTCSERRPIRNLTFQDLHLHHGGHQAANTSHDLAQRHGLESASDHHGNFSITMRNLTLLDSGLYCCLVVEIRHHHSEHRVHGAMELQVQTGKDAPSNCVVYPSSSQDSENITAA
Experiment: ELISA on coated hVISTA-Fc, antibody at 100 ng per well

| Binder | binding result |
| --- | --- |
| B7 | binds |
| B8 | binds |
| B9 | binds |
| B10 | binds |
| B11 | binds |
| B12 | binds |

— patent EP4585619A1 (Cichlid Inc., dated 2025)
